# Measurements reported in patent EP4814011A1 (Shanghai Huaota Biopharmaceutical Co., Ltd., dated 2026).
# T1: Trypsin inhibitor type 1-S from Glycine max (Glycine max, UniProt P01070 25-205)
# T1 construct: Amine coupled to a CM5 chip
# T1 sequence (looked up): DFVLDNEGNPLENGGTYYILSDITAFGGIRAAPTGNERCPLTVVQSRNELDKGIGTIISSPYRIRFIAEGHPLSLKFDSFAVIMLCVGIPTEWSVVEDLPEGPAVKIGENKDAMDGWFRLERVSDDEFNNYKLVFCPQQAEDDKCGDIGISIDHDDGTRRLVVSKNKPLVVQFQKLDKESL
# What was measured:
# [1] = biological target: Human TSLP (form and source not stated) (human, UniProt Q969D9 29-159, limits assumed); test: cell-based or functional assay
# [2] = biological target: T2, human TSLP with His tag (ACRO, TSP-H52Ha) (human, UniProt Q969D9 29-159); test: SPR, His-TSLP captured on anti-His CM5, antibody analyte
# T2 construct: Bought protein; also called human TSLP antigens; Human TSLP (Acro, #TSP-H52Ha); not shown: His tag
# [3] = biological target: T3, monkey TSLP antigen (R127A, R130S) Protein, His Tag (ACRO, Cat#: TSP-C52H4) (monkey, UniProt A0A7N9CAT7 29-159); test: as above
# T3 construct: Bought protein
# T3 sequence (A0A7N9CAT7 entry or part of it R127A R130S R127A R130S limits assumed, form in doubt): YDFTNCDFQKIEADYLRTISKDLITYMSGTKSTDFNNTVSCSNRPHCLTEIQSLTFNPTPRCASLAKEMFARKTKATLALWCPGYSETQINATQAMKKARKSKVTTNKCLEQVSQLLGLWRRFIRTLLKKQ
# [4] = biological target: T1, Trypsin inhibitor type 1-S from Glycine …; test: SPR, protein coupled to CM5
# [5] = biological target: T4, Lysozyme solution from chicken egg (chicken, UniProt P00698 19-147); test: SPR, protein coupled to CM5
# T4 construct: Amine coupled to a CM5 chip
# T4 sequence (P00698 19-147 limits assumed): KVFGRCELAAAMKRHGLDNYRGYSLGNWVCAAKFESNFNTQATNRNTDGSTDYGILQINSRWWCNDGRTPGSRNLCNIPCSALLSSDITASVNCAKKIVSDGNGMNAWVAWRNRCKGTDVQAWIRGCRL
Binder,TARC in PBMC supernatant (ELISA) [1],Kd [2],koff [2],kon [2],Kd [3],koff [3],kon [3],binding response (RU) [4],binding response (RU) [5]
"900792-huH3L1 (antibody, human IgG1, kappa, L234A L235A, V domains shown, Humanized) VH: QVQLQQSGAEVKKPGASVKVSCKASGYAFTNYLIEWVRQAPGQGLEWMGVINPESGDTYYSQKFQGRVTMTADKSTSTAYMELSSLRSEDSAVYFCAKESLTGSSYDYWGQGTTLTVSS VL: DIQMTQSPSSLSASVGDRVTITCRASENIYSNLVWYQQKPGKAPQLLVYGARNLADGVPSRFSGSGSGTQFSLTISSLQPEDFATYYCQHFYETPLTFGTGTKLEIKR",~10 times better than Tezepelumab,0.175 nM,0.000129 s⁻¹,737000 M⁻¹ s⁻¹,6.22 nM,0.0362 s⁻¹,5.82e+06 M⁻¹ s⁻¹,5.6 RU,0.9 RU
"900792-huH3L3 (antibody, human IgG1, kappa, L234A L235A, V domains shown, Humanized) VH: QVQLQQSGAEVKKPGASVKVSCKASGYAFTNYLIEWVRQAPGQGLEWMGVINPESGDTYYSQKFQGRVTMTADKSTSTAYMELSSLRSEDSAVYFCAKESLTGSSYDYWGQGTTLTVSS VL: DIQMTQSPSSLSASVGDRVTITCRASENIYSNLVWYQQKPGKAPQLLIYGARNLQSGVPSRFSGSGSGTQFTLTISSLQPEDFATYYCQHFYETPLTFGTGTKLEIKR",~10 times better than Tezepelumab,0.189 nM,0.000143 s⁻¹,755000 M⁻¹ s⁻¹,6.01 nM,0.087 s⁻¹,1.45e+07 M⁻¹ s⁻¹,8.7 RU,1.9 RU
"900792 chimera (antibody, human IgG1, kappa, L234A L235A, V domains shown, Human-mouse chimera of clone 77E6; human IgG1 constant region with L234A and L235A (Eu), human kappa) VH: QVQLQQSGAELVRPGTSVKVSCKASGYAFTNYLIEWVKQRPGQGLEWIGVINPESGDTYYSEKFKGKATLTADKSSSTAYMQLSSLTSEDSAVYFCAKESLTGSSYDYWGQGTTLTVSS VL: DIQMTQSPASLSASVGESVTITCRASENIYSNLVWYQQKQGKSPQLLVYGARNLADGVPSRFSGSGSGTQFSLKINSLQPEDFGNYYCQHFYETPLTFGTGTKLEIKR",–,0.223 nM,0.000157 s⁻¹,703000 M⁻¹ s⁻¹,4.58 nM,0.0159 s⁻¹,3.47e+06 M⁻¹ s⁻¹,7.2 RU,2.1 RU

# Other lines, results leading:
TARC in PBMC supernatant (ELISA) [1],Kd [2],koff [2],kon [2],Kd [3],koff [3],kon [3],binding response (RU) [4],binding response (RU) [5],Binder
~10 times better than Tezepelumab,0.172 nM,0.000126 s⁻¹,733000 M⁻¹ s⁻¹,5.88 nM,0.0189 s⁻¹,3.22e+06 M⁻¹ s⁻¹,6.8 RU,5.9 RU,"900792-huH2L3 (antibody, human IgG1, kappa, L234A L235A, V domains shown, Humanized) VH: QVQLVQSGAEVKKPGASVKVSCKASGYAFTNYLIEWVRQAPGQGLEWMGIINPESGDTYYAQKFQGRVTMTADKSTSTAYMELSSLRSEDSAVYFCAKESLTGSSYDYWGQGTTLTVSS VL: DIQMTQSPSSLSASVGDRVTITCRASENIYSNLVWYQQKPGKAPQLLIYGARNLQSGVPSRFSGSGSGTQFTLTISSLQPEDFATYYCQHFYETPLTFGTGTKLEIKR"
~10 times better than Tezepelumab,0.126 nM,9.45e-05 s⁻¹,748000 M⁻¹ s⁻¹,8.16 nM,0.00339 s⁻¹,416000 M⁻¹ s⁻¹,5.7 RU,1.8 RU,"900792-huH1L1 (antibody, human IgG1, kappa, L234A L235A, V domains shown, Humanized) VH: QVQLQQSGAEVKKPGASVKVSCKASGYAFTNYLIEWVRQAPGQGLEWIGVINPESGDTYYSEKFQGRVTLTADKSTSTAYMELSSLRSEDSAVYFCAKESLTGSSYDYWGQGTTLTVSS VL: DIQMTQSPSSLSASVGDRVTITCRASENIYSNLVWYQQKPGKAPQLLVYGARNLADGVPSRFSGSGSGTQFSLTISSLQPEDFATYYCQHFYETPLTFGTGTKLEIKR"
~10 times better than Tezepelumab,0.0964 nM,7.02e-05 s⁻¹,728000 M⁻¹ s⁻¹,7.99 nM,0.00321 s⁻¹,402000 M⁻¹ s⁻¹,5.9 RU,1 RU,"900792-huH1L3 (antibody, human IgG1, kappa, L234A L235A, V domains shown, Humanized) VH: QVQLQQSGAEVKKPGASVKVSCKASGYAFTNYLIEWVRQAPGQGLEWIGVINPESGDTYYSEKFQGRVTLTADKSTSTAYMELSSLRSEDSAVYFCAKESLTGSSYDYWGQGTTLTVSS VL: DIQMTQSPSSLSASVGDRVTITCRASENIYSNLVWYQQKPGKAPQLLIYGARNLQSGVPSRFSGSGSGTQFTLTISSLQPEDFATYYCQHFYETPLTFGTGTKLEIKR"
~10 times better than Tezepelumab,0.141 nM,0.00011 s⁻¹,782000 M⁻¹ s⁻¹,3.82 nM,0.0122 s⁻¹,3.19e+06 M⁻¹ s⁻¹,6.9 RU,0.8 RU,"900792-huH2L1 (antibody, human IgG1, kappa, L234A L235A, V domains shown, Humanized) VH: QVQLVQSGAEVKKPGASVKVSCKASGYAFTNYLIEWVRQAPGQGLEWMGIINPESGDTYYAQKFQGRVTMTADKSTSTAYMELSSLRSEDSAVYFCAKESLTGSSYDYWGQGTTLTVSS VL: DIQMTQSPSSLSASVGDRVTITCRASENIYSNLVWYQQKPGKAPQLLVYGARNLADGVPSRFSGSGSGTQFSLTISSLQPEDFATYYCQHFYETPLTFGTGTKLEIKR"
